From patent US20230174659A1 (GENERAL HOSPITAL, published 2023)

Experiments:
[1] = target: T1, Amino acid residues 108-127 of human TNFR2 (human); test: ELISA on plate-coated linear peptide S03935
T1 sequence (peptide): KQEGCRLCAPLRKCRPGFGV

[2] = target: T2, Amino acid residues 106-125 of human TNFR2 (human); test: ELISA, immobilised TNFR2 peptide fragments, TNFRAG1 as primary antibody
T2 sequence (peptide): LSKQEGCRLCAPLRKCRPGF

[3] = target: T3, Amino acid residues 98-117 of human TNFR2 (human); test: as above
T3 sequence (peptide): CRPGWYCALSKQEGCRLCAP

[4] = target: T4, Amino acid residues 66-85 of human TNFR2 (human); test: as above
T4 sequence (peptide): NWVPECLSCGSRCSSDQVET

[5] = target: T5, Amino acid residues 82-101 of human TNFR2 (human); test: as above
T5 sequence (peptide): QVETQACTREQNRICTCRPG

[6] = target: T1, Amino acid residues 108-127 of human TNFR2 (human); test: as above
[7] = target: T6, Amino acid residues 74-93 of human TNFR2 (human); test: as above
T6 sequence (peptide): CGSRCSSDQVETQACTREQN

[8] = target: T7, Amino acid residues 26-45 of human TNFR2 (human); test: as above
T7 sequence (peptide): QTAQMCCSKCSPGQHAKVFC

[9] = target: T8, Amino acid residues 34-53 of human TNFR2 (human); test: as above
T8 sequence (peptide): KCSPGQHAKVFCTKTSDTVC

[10] = target: T3, Amino acid residues 98-117 of human TNFR2 (human); test: ELISA on TNFR2 peptide, antibody alone
[11] = target: T7, Amino acid residues 26-45 of human TNFR2 (human); test: ELISA on TNFR2 peptide, antibody alone
[12] = target: T8, Amino acid residues 34-53 of human TNFR2 (human); test: ELISA on TNFR2 peptide, antibody alone
[13] = target: Full-length human TNFR2 (human) (UniProt P20333); test: ELISA, immobilised human TNFR2 / TNFR2 peptide fragments, TNFRAG1 as primary antibody
[14] = target: T3, Amino acid residues 98-117 of human TNFR2 (human); test: ELISA on plate-coated linear peptide S04072
[15] = target: T9, Amino acid residues 162-181 of human TNFR2 (human); test: ELISA on plate-coated linear peptide S04080
T9 peptide: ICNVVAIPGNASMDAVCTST
Experimental: (§1) ELISA was also used to determine linear epitopes present on the extracellular surface of TNFR2. Linear peptides corresponding to various regions within the TNFR2 primary sequence were purchased from GenScript (Piscataway, NJ), diluted in coating buffer and placed on Immulon 4HBX Flat Bottom Microtiter Plates (Thermo Scientific) at a concentration of 1 µg/well. Primary TNFR2 agonistic antibodies (0.1 µg/well) were incubated with substrates. Secondary antibodies against rodent IgG were used to detect the primary antibodies. Absorbance was measured using the SPECTRAMAX^{®} 190 Absorbance Plate Reader and analyzed with SoftMax Pro 6.3 (Molecular Devices).

[16] = target: T10, Amino acid residues 146-165 of human TNFR2 (human); test: ELISA on plate-coated linear peptide S04078
T10 peptide: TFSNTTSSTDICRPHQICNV
Experimental: as §1

[17] = target: T2, Amino acid residues 106-125 of human TNFR2 (human); test: ELISA on plate-coated linear peptide S04073; Affinity cell of this row is '2+-'
[18] = target: T1, Amino acid residues 108-127 of human TNFR2 (human); test: ELISA on plate-coated linear peptide S03935; Affinity cell of this row is '2+-'
[19] = target: T11, Amino acid residues 114-133 of human TNFR2 (human); test: ELISA on plate-coated linear peptide S04074
T11 peptide: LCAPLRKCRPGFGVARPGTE
Experimental: as §1

[20] = target: T12, Amino acid residues 138-157 of human TNFR2 (human); test: ELISA on plate-coated linear peptide S04077
T12 peptide: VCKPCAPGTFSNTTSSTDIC
Experimental: as §1

[21] = target: T13, Amino acid residues 122-141 of human TNFR2 (human); test: ELISA on plate-coated linear peptide S04075
T13 peptide: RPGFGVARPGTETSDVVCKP
Experimental: as §1

[22] = target: T14, Amino acid residues 130-149 of human TNFR2 (human); test: ELISA on plate-coated linear peptide S04076
T14 peptide: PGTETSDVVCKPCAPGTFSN
Experimental: as §1

[23] = target: T15, Amino acid residues 154-174 of human TNFR2 (human); test: ELISA on plate-coated linear peptide S04079
T15 construct: The printed range 154-174 spans 21 residues, but the printed peptide has 20
T15 peptide: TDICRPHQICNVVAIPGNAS
Experimental: as §1

[24] = target: T7, Amino acid residues 26-45 of human TNFR2 (human); test: ELISA on plate-coated linear peptide S03933; Affinity cell of this row is '1+'
[25] = target: T16, Amino acid residues 58-77 of human TNFR2 (human); test: ELISA on TNFR2 peptide, antibody alone
T16 peptide: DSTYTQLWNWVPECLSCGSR
Experimental: as §1

B1: agonistic TNFR2 antibody TNFRAG1 (antibody, V domains shown)
VH: EVQLQQFGAELVKPGASVKISCKASGYTFTDYNIDWVKQSHGKSLEWIGDINPNYDSTSYSQKFRGKATLTVDKSSSTAYMELRSLTSEDTAVYYCARGNSWYFDVWGAGTTVTVSS
VL: QIVLTQSPALMSASPGEKVTMTCSASSSVRYMYWYQQKPRSSPKPWIYLTSNLASGVPARFSGSGSGTSYSLTISSMEAEDAATYYCQQWSSNPLTFGAGTKLELK
notes: It was detected with secondary antibodies against rodent IgG; also called monoclonal TNFR2 antibody TNFRAG1; TNFR2 agonist antibody
- Affinity [1]: 2
- Affinity Score (affinity score (0 lowest to 4 highest)) [2]: 2
- Affinity Score (affinity score (0 lowest to 4 highest)) [3]: 1
- Affinity Score (affinity score (0 lowest to 4 highest)) [4]: 0
- Affinity Score (affinity score (0 lowest to 4 highest)) [5]: 0
- Affinity Score (affinity score (0 lowest to 4 highest)) [6]: 2
- Affinity Score (affinity score (0 lowest to 4 highest)) [7]: 0
- Affinity Score (affinity score (0 lowest to 4 highest)) [8]: 1
- Affinity Score (affinity score (0 lowest to 4 highest)) [9]: 0
- Affinity [10]: 1
- Reading [10]: 2
- Affinity [11]: 1
- Reading [11]: 0.1
- Affinity [12]: 1
- Affinity Score (affinity score (0 lowest to 4 highest)) [13]: 4
- Affinity [14]: 1
- binding result [15]: no binding
- binding result [16]: no binding
- Reading [17]: 0
- Reading [18]: 0
- binding result [19]: no binding
- binding result [20]: no binding
- binding result [21]: no binding
- binding result [22]: no binding
- binding result [23]: no binding
- Reading [24]: 0
- binding result [25]: no binding
